Laboratory results taken from paper PMC3627919.

Tests used:
[1] = biological target: Nfluc416-WASP (human) (UniProt P42768); test: split reporter (BiFC, NanoBiT); bimolecular luminescence complementation (split firefly luciferase) in living HEK 293 cells, 24 h after transient cotransfection of the pair (50 ng/well) with pRL-tk; D-luciferin 150 ug/ml; IVIS CCD camera; ratio FL at 600 nm to RL at 500 nm; wild-type pairs also with co-expressed GEF or GAP catalytic domains
[2] = biological target: Nfluc416-PAK (UniProt Q13153); test: split-luciferase complementation (BiLC) optical imaging in transiently cotransfected 293 cells; conditions: parent: est. 4.6; read off a plot
[3] = biological target: Nfluc416-PKN (human) (UniProt Q16512); test: split reporter (BiFC, NanoBiT); bimolecular luminescence complementation (split firefly luciferase) in living HEK 293 cells, 24 h after transient cotransfection of the pair (50 ng/well) with pRL-tk; D-luciferin 150 ug/ml; IVIS CCD camera; ratio FL at 600 nm to RL at 500 nm; wild-type pairs also with co-expressed GEF or GAP catalytic domains
Nfluc416-PKN (human), sequence (Q16512 13-112): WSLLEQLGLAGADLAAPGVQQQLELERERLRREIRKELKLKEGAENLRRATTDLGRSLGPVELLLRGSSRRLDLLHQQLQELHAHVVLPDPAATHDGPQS

Nfluc416-WASP (human), sequence (P42768 220-288): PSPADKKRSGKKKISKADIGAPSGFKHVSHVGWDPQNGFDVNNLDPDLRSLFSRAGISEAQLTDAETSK

## CDC42-Cfluc398 (CDC42 G12V) (from UniProt P60953 1-176; P60953 171-191) (natural protein)
[1]
  reconstituted luminescence (FL/RL), fold over CDC42 F37A: 12.7 fold
  reconstituted luminescence (FL/RL), fold over CDC42 T17N: 6.8 fold
  reconstituted luminescence (FL/RL), fold over CDC42 WT: 2.9 fold

## Cfluc398-RacI(WT) (from UniProt P63000) F37A
[2]
  response: 1.4 FL/RL

## Cfluc398-RacI(WT) (from UniProt P63000) T17N
[2]
  response: 2.1 FL/RL

## Cfluc398-RhoA(G14V) (from UniProt P61586 1-193) (natural protein)
[3]
  luminescence signal, fold of the active mutant over the wild type: 5.15 fold
